Measurements published in publication PMC4428445 (Frontiers in Molecular Biosciences, 2015).

Molecular target: T1, Recombinant wild-type human ubiquitin (human, UniProt P0CG48 1-76)
T1 construct: ubiquitin, human, wild type; C-terminal residue G76; 15N labelled in some NMR experiments; In the rows of assays a1, a4 and a5 it is covalently linked by G76 to K117 of m1 (the conjugate is m3); also called free ubiquitin; mono-ubiquitin; source: recombinant, purified by anion exchange followed by gel filtration
Experiment: NMR titration; 15N ubiquitin (50 μM) titrated with unlabeled JosK117-onlyW87R or its mono-ubiquitinated form to a maximum of 2 equivalents; 20 mM Na phosphate pH 6.5, 2 mM DTT, 25°C
Details: both partners purified

B1: W87R mutant of JosK117-only (domain or fragment, UniProt P54252 1-182, looked up)
chain: MESIFHERQEGSLCAQHCLNNLLQGEYFSPVELSSIAHQLDEEERMRMAEGGVTSEDYRTFLQQPSGNMDDSGFFSIQVISNALRVRGLELILFNSPEYQRLRIDPINERSFICNYKEHWFTVRRLGRQWFNLNSLLTGPELISDTYLALFLAQLQQEGYSIFVVRGDLPDCEADQLLQMIR
notes: ataxin-3, N-terminal Josephin domain, amino acids 1-182; K8, 85, 125, 128 and 166 mutated to arginine, and W87R (site 2); also called JosK117-onlyW87R; JosK117-only W87R; source: recombinant; mutant prepared with QuickChange Site-Directed Mutagenesis kit
B1: binds.
